Reference: paper PMC7700585, “Mechanistic Insights into the Allosteric Regulation of the Clr4 Protein Lysine Methyltransferase by Autoinhibition and Automethylation” (International Journal of Molecular Sciences, 2020)

Legend:
Clr4 WT [1] = target: T1, Clr4 WT (Schizosaccharomyces pombe, UniProt O60016); experiment: AdoMet dependence of Clr4 WT activity (MALDI-TOF); format: biochemical; details: 30 °C, Hill model
T1 construct: The plasmid encoding for SUMO- and His-tagged full-length Clr4 WT and different mutant variants were transformed into E. coli; SUMO; His; made in house; host or cells: E. coli BL21-CodonPlus (DE3)
T1 sequence (O60016 whole entry): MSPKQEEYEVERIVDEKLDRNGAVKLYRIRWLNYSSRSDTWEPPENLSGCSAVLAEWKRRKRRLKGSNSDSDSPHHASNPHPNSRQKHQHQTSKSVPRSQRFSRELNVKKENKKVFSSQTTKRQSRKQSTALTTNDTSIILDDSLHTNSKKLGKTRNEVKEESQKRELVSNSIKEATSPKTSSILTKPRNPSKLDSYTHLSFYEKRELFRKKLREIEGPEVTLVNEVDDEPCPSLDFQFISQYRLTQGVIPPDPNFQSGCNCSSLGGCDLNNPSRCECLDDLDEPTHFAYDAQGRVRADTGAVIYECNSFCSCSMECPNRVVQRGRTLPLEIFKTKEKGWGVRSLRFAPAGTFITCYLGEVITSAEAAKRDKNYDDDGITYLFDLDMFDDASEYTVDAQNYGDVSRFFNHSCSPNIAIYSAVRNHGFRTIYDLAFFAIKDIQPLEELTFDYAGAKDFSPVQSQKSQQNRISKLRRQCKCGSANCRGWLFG
Procedure: (§1) To investigate the Clr4 AdoMet dependency and the role that could be played by ARL automethylation in sensing AdoMet concentrations, steady-state kinetics were conducted at variable AdoMet concentrations. […] Afterwards, the methylation products were detected by MALDI-TOF mass spectrometry (Supplementary Figure S5). The Clr4 reaction rates were derived from the analysis of relative peak intensities of the different methylated histone peptides (Figure 6A,B).
(§2) Figure 6 AdoMet dependence of the activity of Clr4 WT and the K455R/K472R mutant. Fractions of methylated products observed with increasing AdoMet concentrations (2–50 µM) for Clr4 WT (A) or the automethylation-deficient K455R/K472R mutant (B). Data were obtained from the analysis of corresponding relative peak intensities measured by MALDI-TOF mass spectrometry in two to four independent experiments (see Supplementary Figure S5).
The reactions were halted by the addition of 0.1% trifluoroacetic acid (TFA). […] After that, the dried spots on the anchor plate were analyzed using an Autoflex Speed MALDI-TOF mass spectrometer (Bruker-Daltonics, Billerica, MA, USA). […] The collected spectra were then analyzed with Flex analysis software (Bruker Daltonics). The relative methylation levels were determined by using the corresponding peak intensities of the substrate peptide in different methylation states.

Clr4 K455R/K472R = Clr4 K455R/K472R (Schizosaccharomyces pombe, UniProt O60016, K455R/K472R); experiment: AdoMet dependence of Clr4 K455R/K472R activity (MALDI-TOF); format: biochemical
Clr4 K455R/K472R, sequence (O60016 whole entry K455R/K472R): as the sequence (O60016 whole entry) above, with K455R, K472R counted along it
Procedure: as §1, §2
(§3) The reactions were halted by the addition of 0.1% trifluoroacetic acid (TFA). All the samples were cleaned using C18 tips (Agilent Technologies, Santa Clara, CA, USA). The eluted samples were spotted on an anchor chip plate and allowed to dry completely. Later, 1 μL of HCCA matrix (0.7 mg/mL α-cyano-4 hydroxycinnamic acid dissolved in 85% acetonitrile, 0.1% TFA, 1 mM ammonium dihydrogen phosphate) was added to dried sample and allowed to dry again. After that, the dried spots on the anchor plate were analyzed using an Autoflex Speed MALDI-TOF mass spectrometer (Bruker-Daltonics, Billerica, MA, USA). The mass spectra were collected using the Flex control software (Bruker-Daltonics). For calibration, the peptide calibration standard (Bruker-Daltonics) with peptides ranging from 700 to 3200 Da was used. The collected spectra were then analyzed with Flex analysis software (Bruker Daltonics). The relative methylation levels were determined by using the corresponding peak intensities of the substrate peptide in different methylation states.

Clr4 WT [2] = target: T1, Clr4 WT; experiment: MALDI-TOF detection of Clr4 WT methylation of histone peptides; format: biochemical; details: 4.5 µM peptide, 1 mM unlabeled AdoMet
Procedure: as §3

Clr4 = experiment: Radioactive in vitro automethylation of Clr4 WT and ARL variants (autoradiography); format: biochemical, Schizosaccharomyces pombe; details: for Automethylation level (relative value): relative to WT, mean ± S.D., two to four independent experiments, results with and without peptide combined, 0.45 µM Clr4, 2.4 µM H3K9me0 peptide, 0.76 µM [methyl-3H]-AdoMet, 50 mM Tris pH 8.8, 3 h, 30 °C; for change in automethylation, in words: compared to WT (triple mutant: compared to A454R); for decrease in automethylation compared to the WT enzyme (fold): autoradiography, normalized to WT
From the text: (§4) After the methylation reactions, the samples were separated by gel electrophoresis and the transfer of the radioactively labeled methyl groups from the cofactor to the respective target lysine residues in Clr4 and in the H3K9 peptide was visualized by autoradiography, analyzed quantitatively and normalized to WT (Figure 2 and Supplementary Table S1).
(§5) Figure 2 Methyltransferase activity and automethylation of different engineered Clr4 variants compared to wild type (WT). […] The red asterisks indicate the Clr4 automethylation signal. […] The mean values are indicated by the bars and the individual data points as circles. […] The p-values of the differences in automethylation and methyltransferase activities between WT and mutants are listed in Supplementary Table S1.
(§6) The reactions were stopped by the addition of Tricine-SDS-PAGE loading buffer followed by heating to 95 °C for 5 min. […] The signals of the transferred radioactively labeled methyl groups were detected by autoradiography using a Hyperfilm^TM high-performance autoradiography film (Merck), which was placed on the dried gels at −80 °C in the dark. Films were developed with an Optimax Typ TR machine after different exposure times. For quantification, the signal intensities were measured with ImageJ (https://imagej.nih.gov/ij/) and analyzed with Microsoft Excel (Microsoft, Redmond, WA, USA).

[3] = tested on: unmodified H3K9 peptide (H3K9me0); experiment: Radioactive in vitro methyltransferase activity of Clr4 variants on H3K9 peptide; format: biochemical; details: for change in methyltransferase activity on the H3K9 peptide, in words: compared to WT (triple mutant: compared to A454R), low AdoMet (0.76 µM); for Methyltransferase activity (relative value): relative to WT, mean ± S.D., two to four independent experiments, 0.45 µM Clr4, 2.4 µM H3K9me0 (1–19) peptide, 0.76 µM [methyl-3H]-AdoMet, 50 mM Tris pH 8.8, 3 h, 30 °C
From the text: as §4, §5, §6

Clr4 A454R = target: T2, Clr4 A454R (Schizosaccharomyces pombe, UniProt O60016, A454R); format: biochemical
T2 construct: The plasmid encoding for SUMO- and His-tagged full-length Clr4 WT and different mutant variants were transformed into E. coli; SUMO; His; made in house; host or cells: E. coli BL21-CodonPlus (DE3)
T2 sequence (O60016 whole entry A454R): as the sequence (O60016 whole entry) above, with A454R counted along it
Procedure: A reaction of WT enzyme incubated with 400 µM peptide was loaded on each gel as reference for the quantitative analysis.
The methylation reactions were performed using a peptide concentration range (25–400 µM) in methylation buffer (50 mM Tris pH 8.8, 10 mM MgCl2, 20 mM KCl, 1 mM DTT) supplemented with 0.76 µM radioactively labeled AdoMet (PerkinElmer) and 0.3 µM Clr4 WT or variants for 1 h at 30 °C.

[4] = tested on: C[S+](CC[C@H](N)C(=O)[O-])C[C@H]1O[C@@H](n2cnc3c(N)ncnc32)[C@H](O)[C@@H]1O; experiment: AdoMet dependence of Clr4 K455R/K472R activity (MALDI-TOF); format: biochemical, Schizosaccharomyces pombe; details: other: Clr4 K455R/K472R 0.9 µM, H3K9me1 peptide 4.58 µM, AdoMet 0–50 µM, 50 mM Tris pH 8.8, 3 h, 30 °C, Michaelis–Menten model, mean ± SEM, two to four independent experiments
Procedure: as §1, §2, §3

[5] = target: Clr4 wild type, SUMO- and His-tagged full-length (S. pombe, UniProt O60016 1-490); experiment: cell-based or functional assay
[6] = target: Clr4 A454R mutant, SUMO- and His-tagged full-length (S. pombe, UniProt O60016 1-490, A454R); experiment: cell-based or functional assay

## C[S+](CC[C@H](N)C(=O)[O-])C[C@H]1O[C@@H](n2cnc3c(N)ncnc32)[C@H](O)[C@@H]1O (stereo partly drawn) [AdoMet, S-adenosyl-L-methionine]
Clr4 WT [1]; Clr4 WT 0.9 µM, H3K9me1 peptide 4.58 µM, AdoMet 0–50 µM, pH 8.8, 3 h, mean ± SEM
  N (Hill coefficient), Clr4 WT: 1.87 ± 0.19
Clr4 K455R/K472R; mutant data were fitted to the Michaelis–Menten model corresponding to an n-value of 1 (not a free parameter)
  n, Clr4 K455R/K472R: 1
Clr4 K455R/K472R; relative to WT activity, Clr4 K455R/K472R 0.9 µM, H3K9me1 peptide 4.58 µM, AdoMet 0–50 µM, pH 8.8, 3 h, 30 °C, Michaelis–Menten model, mean ± SEM
  rel. vmax (AdoMet), Clr4 K455R/K472R: 0.71 ± 0.08

## C[C@H](N)C(=O)N[C@@H](CCCNC(=N)N)C(=O)N[C@H](C(=O)N[C@@H](CCCCN)C(=O)N[C@@H](CCC(N)=O)C(=O)N[C@H](C(=O)N[C@@H](C)C(=O)N[C@@H](CCCNC(=N)N)C(=O)N[C@@H](CCCCN)C(=O)N[C@@H](CO)C(=O)N[C@H](C(=O)NCC(=O)NCC(=O)N[C@@H](CCCCN)C(=O)N[C@@H](C)C(=O)N1CCC[C@H]1C(=O)N[C@@H](CCCNC(=N)N)C(=O)N[C@@H](CCCCN)C(=O)N[C@@H](CCC(N)=O)C(N)=O)[C@@H](C)O)[C@@H](C)O)[C@@H](C)O [H3K9me0]
Clr4 WT [2]
  H3K9me1 product fraction after overnight incubation: 12%
  H3K9me2 product fraction after overnight incubation: 42%
  total methylation after overnight incubation: 54%

## A454R: Clr4 variant, A454 in the ARL was mutated to R
Clr4; p-value = 0.012
  stronger automethylation compared to Clr4 WT (fold): about 3.4 fold
Clr4
  Automethylation level (relative value): 3.4 ± 1.05
[3]
  change in methyltransferase activity on the H3K9 peptide, in words: approximately two-fold higher methyltransferase activity
  Methyltransferase activity (relative value): 1.9 ± 0.33
Clr4 A454R; A454R compared to WT, H3K9me0 and H3K9me1, Figure S4
  activity at low concentrations of both histone peptides: higher activity compared to the WT
Clr4 A454R; histone peptides, AdoMet 0.76 µM
  Vmax difference A454R vs WT: minor

## Clr4 K455R/K472R (Schizosaccharomyces pombe 972h-; K455R/K472R)
[4]
  Km: 13.6 ± 1.0 µM

## Clr4 WT: S. pombe H3K9 protein lysine methyltransferase Clr4, wild type
Clr4 WT [1]; AdoMet 2–50 µM, H3K9me1 peptide, 3 h
  reaction rate response towards increasing AdoMet concentration, Clr4 WT: sigmoidal response

## D456S/F457T: Clr4 variant, D456 and F457 were mutated to S and T
Clr4
  change in automethylation, in words: no significant change in automethylation
  Automethylation level (relative value): 1.2 ± 0.33
[3]
  change in methyltransferase activity on the H3K9 peptide, in words: no significant change in automethylation and methyltransferase activity
  Methyltransferase activity (relative value): 1.2 ± 0.14

## K455M: Clr4 variant in which the target lysine in the ARL, K455, was mutated to M
Clr4
  change in automethylation, in words: strong reduction in automethylation (about four-fold
  Automethylation level (relative value): 0.23 ± 0.05
[3]; less active than WT, p-value = 0.0004
  reduction in H3K9 peptide methyltransferase activity: 30%
[3]
  Methyltransferase activity (relative value): 0.7 ± 0.09

## K455R/K472R: ARL automethylation-deficient Clr4 mutant
Clr4
  decrease in automethylation compared to the WT enzyme (fold): ~2.2 fold
  Automethylation level (relative value): 0.46 ± 0.15
[3]
  change in methyltransferase activity on the H3K9 peptide, in words: not accompanied by a corresponding reduction in activity
  Methyltransferase activity (relative value): 0.91 ± 0.08
Clr4 K455R/K472R; AdoMet 2–50 µM, H3K9me1 peptide, 3 h, 30 °C, Michaelis–Menten model
  reaction rate response towards increasing AdoMet concentration, K455R/K472R: regular hyperbolic shape

## K455R: automethylation-deficient Clr4 mutant
Clr4
  decrease in automethylation compared to the WT enzyme (fold): about 1.4 fold
  Automethylation level (relative value): 0.7 ± 0.08
[3]
  change in methyltransferase activity on the H3K9 peptide, in words: not accompanied by a corresponding reduction in activity
  Methyltransferase activity (relative value): 1.1 ± 0.008

B1: A454R/D456S/F457T: Clr4 triple mutant, all of the exchanges combined in one mutant (protein, UniProt O60016 1-490, looked up, variant A454R D456S F457T)
Histone-lysine …: MSPKQEEYEVERIVDEKLDRNGAVKLYRIRWLNYSSRSDTWEPPENLSGCSAVLAEWKRRKRRLKGSNSDSDSPHHASNPHPNSRQKHQHQTSKSVPRSQRFSRELNVKKENKKVFSSQTTKRQSRKQSTALTTNDTSIILDDSLHTNSKKLGKTRNEVKEESQKRELVSNSIKEATSPKTSSILTKPRNPSKLDSYTHLSFYEKRELFRKKLREIEGPEVTLVNEVDDEPCPSLDFQFISQYRLTQGVIPPDPNFQSGCNCSSLGGCDLNNPSRCECLDDLDEPTHFAYDAQGRVRADTGAVIYECNSFCSCSMECPNRVVQRGRTLPLEIFKTKEKGWGVRSLRFAPAGTFITCYLGEVITSAEAAKRDKNYDDDGITYLFDLDMFDDASEYTVDAQNYGDVSRFFNHSCSPNIAIYSAVRNHGFRTIYDLAFFAIKDIQPLEELTFDYAGRKSTSPVQSQKSQQNRISKLRRQCKCGSANCRGWLFG
Clr4
  change in automethylation, in words: no significant difference from the A454R single mutant
  Automethylation level (relative value): 2.7 ± 0.66
[3]
  change in methyltransferase activity on the H3K9 peptide, in words: no significant difference from the A454R single mutant
  Methyltransferase activity (relative value): 1.7 ± 0.02

B2: H3K9me1-biotin (1–18) peptide (peptide, UniProt P68431 2-19, looked up)
peptide: ARTKQTARKSTGGKAPRK
modifications: monomethyl-lysine at 9; biotin (end not stated)
[5]
  Km of peptide methylation (steady-state kinetics, Michaelis–Menten fit, 0.76 µM AdoMet): 16.4 µM
[6]
  Km of peptide methylation (steady-state kinetics, Michaelis–Menten fit, 0.76 µM AdoMet): 5.5 µM
